Experimental data as given in paper PMC6738647, “A nanobody targeting the translocated intimin receptor inhibits the attachment of enterohemorrhagic E. coli to human colonic mucosa” (PLoS Pathogens, 2019).

T1: Tir TirM (Escherichia coli, UniProt P0DJ92)
T1 chain: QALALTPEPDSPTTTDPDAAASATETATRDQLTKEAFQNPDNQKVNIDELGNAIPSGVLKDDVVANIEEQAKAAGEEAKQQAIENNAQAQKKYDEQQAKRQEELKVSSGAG

T2: Int280 of EHEC (C-terminal receptor-binding domain of intimin), His-tagged (enterohemorrhagic E. coli (EHEC) O157:H7, UniProt P43261 655-934)
T2 construct: also called Int280_(EHEC)
T2 sequence: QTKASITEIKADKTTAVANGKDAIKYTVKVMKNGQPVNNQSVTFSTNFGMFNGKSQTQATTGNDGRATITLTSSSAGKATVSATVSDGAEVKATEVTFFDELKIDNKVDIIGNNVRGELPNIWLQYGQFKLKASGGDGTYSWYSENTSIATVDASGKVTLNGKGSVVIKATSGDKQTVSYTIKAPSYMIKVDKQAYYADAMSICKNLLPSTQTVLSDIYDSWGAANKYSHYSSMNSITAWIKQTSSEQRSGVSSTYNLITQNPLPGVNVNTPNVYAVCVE

B1: Intimin Int280 Int280 (protein)
chain: QTKASITEIKADKTTAVANGKDAIKYTVKVMKNGQPVNNQSVTFSTNFGMFNGKSQTQATTGNDGRATITLTSSSAGKATVSATVSDGAEVKATEVTFFDELKIDNKVDIIGNNVRGELPNIWLQYGQFKLKASGGDGTYSWYSENTSIATVDASGKVTLNGKGSVVIKATSGDKQTVSYTIKAPSYMIKVDKQAYYADAMSICKNLLPSTQTVLSDIYDSWGAANKYSHYSSMNSITAWIKQTSSEQRSGVSSTYNLITQNPLPGVNVNTPNVYAVCVE
B2: Biotinylated TirM of EHEC, His-tagged (domain or fragment)
chain: QALALTPEPDSPTTTDPDAAASATETATRDQLTKEAFQNPDNQKVNIDELGNAIPSGVLKDDVVANIEEQAKAAGEEAKQQAIENNAQAQKKYDEQQAKRQEELKVSSGAG
modifications: biotin (Biotinamidocaproate N-hydroxysuccinimide ester)
notes: also called biotinylated TirM_(EHEC)

Tests used:
Tir TirM = target: T1, Tir TirM; assay: SPR
[1] = target: T2, Int280 of EHEC (C-terminal …); assay: SPR; BiaCore3000; biotinylated TirM_(EHEC) immobilised on a Streptavidin SA chip at 150 RU; Int280 as analyte at 30 ul/min in HEPES-buffer; 1:1 Langmuir model; KD from koff/kon; conditions: both partners purified

Binder | Kd (Tir TirM) | Kd [1] | koff [1] | kon [1]
B1 | ~40 nM |  |  | 
B2 |  | 48.1 nM | 0.0375 s⁻¹ | 785000 M⁻¹ s⁻¹
